Biological target: microtubules (tubulin purified from bovine brain) (bovine) (UniProt Q6B856)
Assay: co-sedimentation

Chain of microtubules (tubulin purified from bovine brain) (bovine) (Q6B856 whole entry, looked up): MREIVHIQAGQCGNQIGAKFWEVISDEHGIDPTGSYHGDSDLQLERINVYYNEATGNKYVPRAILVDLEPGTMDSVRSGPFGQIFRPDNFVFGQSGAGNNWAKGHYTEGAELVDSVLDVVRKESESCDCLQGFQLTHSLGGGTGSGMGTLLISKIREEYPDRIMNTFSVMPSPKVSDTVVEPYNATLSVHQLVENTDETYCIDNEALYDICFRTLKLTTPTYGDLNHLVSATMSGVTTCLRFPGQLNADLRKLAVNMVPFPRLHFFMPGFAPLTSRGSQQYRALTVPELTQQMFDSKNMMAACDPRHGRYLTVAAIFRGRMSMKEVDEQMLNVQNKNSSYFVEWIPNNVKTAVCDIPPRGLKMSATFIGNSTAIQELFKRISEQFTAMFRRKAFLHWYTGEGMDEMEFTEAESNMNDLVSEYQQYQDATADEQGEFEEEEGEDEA

## native kinesin (kinesin-1, conventional kinesin) purified from bovine brain (complex)
  active fraction by microtubule pulldown (no CK2): 20%
  percent of motor bound to microtubules (after CK2, 3:1 kinase:motor): 80%

Source: publication PMC3574636
